Experimental data reported in US20180346600A1 (AJOU UNIVERSITY INDUSTRY ACADEMIC COOPERATION FOUNDATION, published 2018).
Positions count from the first letter of the chain named. Names and notes keep the numbering of the source.

T1: displayed FcCH3A, W-VT (K409W), on yeast cell surface (human, UniProt P0DOX5 227-449 = IgG part)
T1 construct: EU 226 and 229 counted from the entry's start at EU 225; also called W-VT CH3A chain (yeast)
T1 Fc: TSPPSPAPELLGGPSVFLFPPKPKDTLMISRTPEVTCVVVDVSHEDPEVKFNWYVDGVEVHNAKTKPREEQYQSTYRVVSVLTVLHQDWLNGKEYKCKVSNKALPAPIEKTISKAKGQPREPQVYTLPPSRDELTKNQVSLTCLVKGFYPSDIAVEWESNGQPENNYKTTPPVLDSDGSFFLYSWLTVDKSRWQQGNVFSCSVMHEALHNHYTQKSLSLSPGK

T2: displayed FcCH3A, EW-RVT (K360E/K409W), on yeast cell surface (human, UniProt P0DOX5 227-449 = IgG part)
T2 construct: also called EW-RVT CH3A chain (yeast)
T2 Fc: T1 Fc with K136E

T3: displayed FcCH3A, A107 (K370E/K409W), on yeast cell surface (human, UniProt P0DOX5 227-449 = IgG part)
T3 construct: also called A107 CH3A chain (yeast)
T3 Fc: T1 Fc with K146E

T4: displayed FcCH3A, A108 (K370E/K409W), on yeast cell surface (human, UniProt P0DOX5 227-449 = IgG part)
T4 construct: also called A108 CH3A chain (yeast)
T4 Fc: T1 Fc with K146E

B1: secreted FcCH3B, W-VT (D399V/F405T), from yeast (other)
chain: T1 Fc with D175V, F181T, W185K
notes: also called W-VT CH3B chain (yeast); not shown: flag-tag
B2: secreted FcCH3B, EW-RVT (Q347R/D399V/F405T), from yeast (other)
chain: T1 Fc with Q123R, D175V, F181T, W185K
notes: also called EW-RVT CH3B chain (yeast); not shown: flag-tag
B3: secreted FcCH3B, A107 (E357N/D399V/F405T), from yeast (other)
chain: T1 Fc with E133N, D175V, F181T, W185K
notes: also called A107 CH3B chain (yeast); not shown: flag-tag
B4: secreted FcCH3B, A108 (E357I/S364T/D399V/F405T), from yeast (other)
chain: T1 Fc with E133I, S140T, D175V, F181T, W185K
notes: also called A108 CH3B chain (yeast); not shown: flag-tag
B5: FcCH3B, EW-RVT (Q347R/D399V/F405T) (other)
chain: T1 Fc with S2C, S5C, Q73N, Q123R, D175V, F181T, W185K
notes: also called EW-RVT CH3B chain
B6: FcCH3B, A107 (E357N/D399V/F405T) (other)
chain: T1 Fc with S2C, S5C, Q73N, E133N, D175V, F181T, W185K
notes: also called A107 CH3B chain
B7: FcCH3B, A108 (E357I/S364T/D399V/F405T) (other)
chain: T1 Fc with S2C, S5C, Q73N, E133I, S140T, D175V, F181T, W185K
notes: also called A108 CH3B chain
B8: FcCH3B, A109 (E357M/S364W/D399V/F405T) (other)
chain: T1 Fc with S2C, S5C, Q73N, E133M, S140W, D175V, F181T, W185K
notes: also called A109 CH3B chain
B9: FcCH3B, A146 (E357M/D399V/F405T) (other)
chain: T1 Fc with S2C, S5C, Q73N, E133M, D175V, F181T, W185K
notes: also called A146 CH3B chain
B10: FcCH3B, B121 (K392E/D399V/F405T) (other)
chain: T1 Fc with S2C, S5C, Q73N, K168E, D175V, F181T, W185K
notes: also called B121 CH3B chain
B11: FcCH3B, B135 (K392S/K409L/D399V/F405T) (other)
chain: T1 Fc with S2C, S5C, Q73N, K168S, D175V, F181T, W185L
notes: also called B135 CH3B chain
B12: FcCH3B, B168 (K392G/K409M/D399V/F405T) (other)
chain: T1 Fc with S2C, S5C, Q73N, K168G, D175V, F181T, W185M
notes: also called B168 CH3B chain
B13: FcCH3B, B212 (D399G/K392G/K409M) (other)
chain: T1 Fc with S2C, S5C, Q73N, K168G, D175G, W185M
notes: also called B212 CH3B chain
B14: FcCH3B, B215 (D399W/K392G/K409M) (other)
chain: T1 Fc with S2C, S5C, Q73N, K168G, D175W, W185M
notes: also called B215 CH3B chain
B15: FcCH3B, B235 (D399C/K392G/K409M) (other)
chain: T1 Fc with S2C, S5C, Q73N, K168G, D175C, W185M
notes: also called B235 CH3B chain
B16: FcCH3B, B239 (D399S/K392G/K409M) (other)
chain: T1 Fc with S2C, S5C, Q73N, K168G, D175S, W185M
notes: also called B239 CH3B chain
B17: FcCH3B, B240 (D399G/K392G/K409M) (other)
chain: T1 Fc with S2C, S5C, Q73N, K168G, D175G, W185M
notes: also called B240 CH3B chain
B18: FcCH3B, B256 (D399V/K392G/K409M) (other)
chain: T1 Fc with S2C, S5C, Q73N, K168G, D175V, W185M
notes: also called B256 CH3B chain

What was measured:
[1] = target: T1, displayed FcCH3A, W-VT (K409W), on …; experiment: flow cytometry histogram (PE, FL2-H) of diploid yeast: Flag-tagged secreted FcCH3B held on displayed FcCH3A, anti-Flag mouse mAb and PE anti-mouse antibody
Experimental: Specifically, the diploid in which the expression of the heterodimeric heavy chain constant region was induced was reacted with an antibody recognizing flag-tag included in the secreted FcCH3B (anti-Flag mouse mAb, F3165) (Sigma-Aldrich) and an antibody conjugated with PE (phycoerythrin conjugated anti-mouse mAb, sc-3738) (Santa Cruz biotechnology), and a signal of PE was analyzed by flow cytometry.

[2] = target: T2, displayed FcCH3A, EW-RVT (K360E/K409W), …; experiment: flow cytometry of diploid yeast: MFI of Flag-tagged secreted FcCH3B held on displayed FcCH3A (anti-Flag mouse mAb and PE anti-mouse antibody), normalised to EW-RVT = 100 %
[3] = target: T3, displayed FcCH3A, A107 (K370E/K409W), …; experiment: as above
[4] = target: T4, displayed FcCH3A, A108 (K370E/K409W), …; experiment: as above
[5] = target: the molecule itself; experiment: HEK293-F co-expression, Protein A purification, non-reducing SDS-PAGE densitometry
From the text: The pcDNA3.1 (+)-scFv-FcCH3A and pcDNA3.1 (+)-FcCH3B animal cell expression vectors that were constructed using the HEK293-F system (Invitrogen) were used to produce antibodies by transient transfection, and the heterodimer formation ability was compared. Specifically, a mixture of an expression vector and polyethylenimine (PEI) (Polyscience) was transfected into HEK293-F cells (Invitrogen) that were suspension-grown on a serum-free FreeStyle 293 expression medium (Invitrogen) in a shaking flask (Corning). When transfecting 30 ml of the mixture in the shaking flask, HEK293-F cells were seeded at a density of 1.0×10⁶ cell/ml in 30 ml of medium and cultured at 125 rpm and 8% CO₂. […] Then, the reacted mixed medium was added to 30 ml of the previously seeded cells and cultured at 125 rpm and 8% CO₂ for 6 days. The cell culture supernatant collected with reference to the standard protocol was applied to Protein A Sepharose column (GE healthcare), washed with PBS (pH 7.4). The antibody was eluted at pH 3.0 with 0.1 M glycine buffer and immediately neutralized with 1 M Tris buffer. The eluted antibody fraction was concentrated using an Amicon Ultra (MILLIPORE) centrifugal concentrator after the buffer was exchanged with PBS (pH 7.4) using a Dextran Desalting Column (Thermo Scientific Pierce). The purified antibody was quantified by BCA technique.
The W-VT and EW-RVT mutants were used as control groups.

[6] = target: the molecule itself; experiment: as above; remark: listed apart in the source
From the text: The CH3 domain mutant pair of the individual clones selected from the LibA2 and LibB2 libraries in Example 8 above was cloned into an animal cell expression vector so that the CH3A mutant was expressed into the scFv-FcCH3A format and the CH3B mutant was expressed into the FcCH3B format.
The EW-RVT and A107_{w/oW-VT}, B168_{w/oW-VT} mutant pairs were used as control groups.

Binder	(Fc)2 (homodimer) (%) [5] [%]	(FC)2 (homodimer)(%) [6] [%]	other results
B1			binding result [1]: binds
B2			binding result [2]: binds
B3			binding result [3]: binds
B4			binding result [4]: binds
B5	1.6	1.6	
B6	2.4		
B7	13		
B8	5.8		
B9	14.6		
B10	25.2		
B11	27.9		
B12	21.1		
B13		33.8	
B14		20	
B15		6.9	
B16		20.3	
B17		11.9	
B18		16.7	
